Measurements taken from paper PMC5841803, “Retinal guanylyl cyclase activating protein 1 forms a functional dimer” (PLoS ONE, 2018).
Changes are numbered by the printed parent chain. In names and notes the source's numbering stands. Like-named read-outs stand apart in the source and are kept apart here.

What was measured:
[1] = molecular target: T1, human retinal guanylyl cyclase RetGC1 (human, UniProt Q02846 52-1103)
T1 sequence (looked up): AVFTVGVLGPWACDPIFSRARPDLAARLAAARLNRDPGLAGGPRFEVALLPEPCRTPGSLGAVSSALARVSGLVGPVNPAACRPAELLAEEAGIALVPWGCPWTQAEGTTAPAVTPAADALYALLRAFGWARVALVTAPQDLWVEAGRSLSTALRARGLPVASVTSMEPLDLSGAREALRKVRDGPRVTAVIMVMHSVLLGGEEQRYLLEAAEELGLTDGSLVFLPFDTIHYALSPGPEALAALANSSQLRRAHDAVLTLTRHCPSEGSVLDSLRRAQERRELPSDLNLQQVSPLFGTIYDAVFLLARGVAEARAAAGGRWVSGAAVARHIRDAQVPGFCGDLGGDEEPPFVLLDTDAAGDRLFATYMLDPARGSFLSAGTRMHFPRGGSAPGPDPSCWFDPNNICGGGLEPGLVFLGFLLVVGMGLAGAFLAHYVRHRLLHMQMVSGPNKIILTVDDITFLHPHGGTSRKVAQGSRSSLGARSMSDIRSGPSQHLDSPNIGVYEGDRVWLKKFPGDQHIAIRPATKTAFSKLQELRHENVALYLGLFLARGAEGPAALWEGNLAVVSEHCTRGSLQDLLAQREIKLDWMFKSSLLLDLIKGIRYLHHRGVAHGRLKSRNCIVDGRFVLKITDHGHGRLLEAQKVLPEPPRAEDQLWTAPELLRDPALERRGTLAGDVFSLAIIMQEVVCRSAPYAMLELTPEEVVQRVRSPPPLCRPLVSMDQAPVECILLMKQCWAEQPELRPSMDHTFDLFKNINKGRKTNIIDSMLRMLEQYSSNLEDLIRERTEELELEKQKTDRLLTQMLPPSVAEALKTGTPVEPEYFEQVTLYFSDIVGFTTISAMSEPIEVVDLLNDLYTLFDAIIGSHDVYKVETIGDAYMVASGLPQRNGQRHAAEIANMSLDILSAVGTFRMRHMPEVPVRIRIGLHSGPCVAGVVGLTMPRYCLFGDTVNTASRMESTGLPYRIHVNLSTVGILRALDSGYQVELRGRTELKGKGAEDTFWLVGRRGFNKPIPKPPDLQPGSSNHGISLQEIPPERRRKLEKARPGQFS

[2] = molecular target: the molecule itself; assay: EPR-DEER; spin-labelled (MTSSL) single-Cys GCAP1 at ~300 uM, 10 mM Tris-d11 pH 7.4, 2 mM MgCl2, D2O, 25% glycerol-d8, frozen, 50 or 80 K; Ca2+-free/Mg2+-bound state, similar data in the Ca2+-bound state; intermolecular spin-label distances
[3] = molecular target: the molecule itself; assay: NMR pulsed-field gradient diffusion; translational diffusion coefficient of spin-labelled GCAP1^CL(T29C); molar mass from D
[4] = molecular target: the molecule itself; assay: SEC; analytical SEC, Superdex 200 HR 10/30, 100 uL of 200 uM protein, 10 mM Tris pH 7.4, 100 mM NaCl, 1 mM DTT, 4 C, with saturating Mg2+ (2 mM) or Ca2+ (2 mM); molar mass from elution time against protein standards
[5] = molecular target: T1, human retinal guanylyl cyclase RetGC1; assay: cell-based or functional assay

B1: Cys-less mutant of GCAP1 (GCAP1^CL) (natural protein)
chain: MGNIMSGKSVEELSSTETHQWYKKFMTETPSGQLTLYEFRQFFGLKNLSPWASQYVEQMFETFDFNKDGYIDFMEYVAALSLVLKGKVEQKLRWYFKLYDVDGNGTIDRDELLTIIRAIRAINPTSDSTMTAEEFTDTVFSKIDVNGDGELSLEEFMEGVQKDQMLLDTLTRSLDLTRIVRRLQNGEQDEEGASGRETEAAEADG
modifications: N-terminal myristoylation
EC50 of activation of RetGC1 (HEK293 membranes) in the absence of Ca2+ (EGTA), guanylyl cyclase assay [1]: 14 µM

B2: GCAP1^CL(E154C), nitroxide spin-labelled (natural protein, bovine, UniProt P46065 1-205, looked up)
chain: B1 chain with E154C
modifications: N-terminal myristoylation; MTSSL nitroxide spin-label on Cys154
notes: GCAP1, bovine, D6S background, Cys-less (all four native Cys C18, C29, C106, C125 to Thr), with a single Cys at 154; source: E. coli BL21(DE3), co-expressed with yeast N-myristoyl CoA transferase, purified, labelled with MTSSL
binding result [2]: binds

B3: GCAP1^CL(T29C), spin-labelled (natural protein, bovine, UniProt P46065 1-205, looked up)
chain: B1 chain with T29C
modifications: N-terminal myristoylation; MTSSL spin-label on Cys29 (N-O group reduced for the HSQC spectrum)
notes: GCAP1, bovine, D6S background, Cys-less parent (C18, C29, C106, C125 to Thr) in which T29C restores the natural Cys29; also called spin-labeled GCAP1^CL(T29C); source: E. coli BL21(DE3), co-expressed with yeast N-myristoyl CoA transferase, purified, labelled with MTSSL
stoichiometry N [3]: 4

B4: GCAP1^CL(E133C), nitroxide spin-labelled (natural protein, bovine, UniProt P46065 1-205, looked up)
chain: B1 chain with E133C
modifications: N-terminal myristoylation; MTSSL nitroxide spin-label on Cys133
notes: GCAP1, bovine, D6S background, Cys-less (all four native Cys C18, C29, C106, C125 to Thr), with a single Cys at 133; source: E. coli BL21(DE3), co-expressed with yeast N-myristoyl CoA transferase, purified, labelled with MTSSL
binding result [2]: binds

B5: wild type GCAP1 (recombinant bovine myristoylated guanylyl cyclase activating protein 1, D6S) (natural protein, UniProt P46065 1-205, looked up)
chain: B1 chain with T18C, T29C, T106C, T125C
modifications: N-terminal myristoylation
notes: 15N-labelled for NMR; also called GCAP1 D6S mutant; source: E. coli BL21(DE3), co-expressed with yeast N-myristoyl CoA transferase, purified
stoichiometry N [4]: 2 | EC50 of activation of RetGC1 (HEK293 membranes) in the absence of Ca2+ (EGTA), guanylyl cyclase assay [5]: < 2 µM

B6: GCAP1^CL(E57C), nitroxide spin-labelled (natural protein, bovine, UniProt P46065 1-205, looked up)
chain: B1 chain with E57C
modifications: N-terminal myristoylation; MTSSL nitroxide spin-label on Cys57
notes: GCAP1, bovine, D6S background, Cys-less (all four native Cys C18, C29, C106, C125 to Thr), with a single Cys at 57; source: E. coli BL21(DE3), co-expressed with yeast N-myristoyl CoA transferase, purified, labelled with MTSSL
binding result [2]: binds
